This note sets out measurements from patent US20190177391A1, “ANGIOPOIETIN-LIKE PROTEIN 8 (ANGPTL8)” (BAYLOR RESEARCH INSTITUTE, priority 2016, published 2019).

One data set relates to Notch1. Kind of data set: Notch1 expression in HL-1 atria muscle cells treated with ADM. It is filed as cell-based, mouse. As to conditions: HL-1 cells; ADM 0.25, 0.5, 1.0 μM, 48 hrs.
Data set [1] concerns rat hearts with established adriamycin cardiomyopathy. Kind of data set: Echocardiography of heart structure and function in established adriamycin cardiomyopathy. It is filed as in vivo. As to conditions: protein therapy; 5, 20, 40 μg/kg/day intramuscular for 14 days; ADM cardiomyopathy rats. As to the method:
The protocol was planned to test the hypothesis that delivery of ANGPTL8 by UTMD could reverse established adriamycin (ADM) cardiomyopathy defined as a fractional shortening <30% by echocardiography after injection of ADM (Iliskovic, et al., 1997) at total dose of 15 mg/kg/ip, 2.5 mg/kg/ip 6 times over 2 weeks.
(§1) There were 120 rats divided into three control groups of 30 rats each and a treatment group of 30 rats: (1) normal control rats; (2) ADM injection only; (3) ADM plus UTMD with a DsRed reporter gene (pXL-BASII-CI-DsRed/pCI-hyPB); (4) ADM plus UTMD with ANGPTL8 (pXL-BASII-CI-ANGPTL8/pCI-hyPB). All rats were euthanized at 3 days, 7 days, 14 days, 21 days and 28 days after UTMD. The thymidine analog, 5-bromo-2-deoxyuridine (BrdU) (100 mg/kg) was injected intraperitoneally 6 hours prior to euthanizing.
(§2) 15 rats divided into (1) normal control rats; (2) ADM plus Saline inject rats; (3) ADM plus ANGPTL8 protein at dose of 5 μg/kg/day intramuscular inject for 14 days; (4) ADM plus ANGPTL8 protein at dose of 20 μg/kg/day intramuscular inject for 14 days; (5) ADM plus ANGPTL8 protein at dose of 40 μg/kg/day intramuscular inject for 14 days; All rats were euthanized at 14 days after starting ANGTPL8 protein inject. The thymidine analog, 5-bromo-2-deoxyuridine (BrdU) (100 mg/kg) was injected intraperitoneally 6 hours prior to euthanasia. […]

The next data set has as its system ISL-1. Kind of data set: ISL-1 positive cardiac progenitor cells in epicardium and sub-epicardium (staining, qRT-PCR). As to conditions: protein injection, dose dependent manner, after 14 days treatment. It is filed as in vivo, rat. As to the method: as §1, §2
Total RNA was isolated from 100 mg of pancreas, liver and left quadratic skeletal muscle using the RNeasy mini kit (Qiagen). Real-time quantitative RT-PCR (qRT-PCR) analysis was performed on an ABI 7700 Sequence Detector (Applied Biosystems, Grand Island, N.Y., USA) using SYBR Green (RT2 SYBR Green qPCR Kit; Qiagen, Boston, Mass., USA). […]

Data set [2] in a line: ELISA for fasting plasma human ANGPTL8. It is filed as in vivo, rat. As to conditions: protein therapy; intramuscular daily for 14 days, 5, 20, 40 μg/kg/day; day 3, 7, 10 and 14. As to the method: as §1
15 rats divided into (1) normal control rats; (2) ADM plus Saline inject rats; (3) ADM plus ANGPTL8 protein at dose of 5 μg/kg/day intramuscular inject for 14 days; (4) ADM plus ANGPTL8 protein at dose of 20 μg/kg/day intramuscular inject for 14 days; (5) ADM plus ANGPTL8 protein at dose of 40 μg/kg/day intramuscular inject for 14 days; All rats were euthanized at 14 days after starting ANGTPL8 protein inject. The thymidine analog, 5-bromo-2-deoxyuridine (BrdU) (100 mg/kg) was injected intraperitoneally 6 hours prior to euthanasia. Human recombinant protein ANGTPL8 protein was purchased from Phoenix Pharmaceuticals (Cat #056-61, Burlingame, Calif., USA).
Fasting venous blood was collected in EDTA tubes from the tail vein, and plasma lipids were measured using standard enzymatic assays. Human ANGTPL8 was measured using ELISA (Phoenix Pharmaceuticals).

Consider `COc1cccc2c1C(=O)c1c(O)c3c(c(O)c1C2=O)C[C@@](O)(C(=O)CO)C[C@@H]3O[C@H]1C[C@H](N)[C@H](O)[C@H](C)O1` [ADM, adriamycin], for which the Notch1 expression result in the data set with Notch1 was “significantly inhibited”.

B1: ANGPTL8 protein: Human recombinant ANGPTL8 protein purchased from Phoenix Pharmaceuticals (Cat #056-61), injected intramuscularly (protein, UniProt Q6UXH0 22-198, looked up)
Angiopoietin-like protein 8: APMGGPELAQHEELTLLFHGTLQLGQALNGVYRTTEGRLTKARNSLGLYGRTIELLGQEVSRGRDAAQELRASLLETQMEEDILQLQAEATAEVLGEVAQAQKVLRDSVQRLEVQLRSAWLGPAYREFEVLKAHADKQSHILWALTGHVQRQRREMVAQQHRLRQIQERLHTAALPA
For the molecule B1, in data set [1], the LV fractional shortening entry is “some degree of restoration” and the LV mass result is given as “some degree of restoration”. For the same molecule, the “ISL-1 positive cells in epicardial layer” value with ISL-1 was “activated”. Moreover, the “human ANGPTL8 in fasting plasma” value in data set [2] is on record as “detected”.
